Test system: MS2 coat protein
Assay: apparent KD of MS2 coat protein; designed switch direction (-1 OFF switch, 1 ON switch): -1; higher = weaker reporter binding
In short: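 For each design, the apparent KD is the median over clusters of curves fitted to normalised cluster fluorescence. Clusters held RNA switches with common flanks, transcribed on Illumina chips by stalled E. coli RNA polymerase. These were titrated with SNAP-549-labelled MS2 coat protein, doubling from 0.7 or 1.5 nM to 3 µM, without input, with 200 uM small-molecule ligand, or with an oligonucleotide input.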

[1] = Eterna round: R95, input ligand: FMN 200 uM
[2] = Eterna round: R95, input ligand: microRNA oligo, concentration not stated
[3] = Eterna round: R95, input ligand: none
[4] = input ligand: microRNA oligo, concentration not stated

Sequence: GCCGGGCGAGGAUAUACAUGGCGGGCGAAAGCCCGCGAUCUACAUGAGGAUCACCCAUGUAGAAGGCGCCCGGC [2nd Free energy optimized design] (Eterna round: R97, puzzle: Exclusion 2)
- apparent KD of MS2 coat protein (input ligand: FMN 200 uM): 0.567 µM
- apparent KD of MS2 coat protein (input ligand: none): 0.0493 µM

Sequence: GAACGCCGGCAGGAUAUGGACAGCCAAAAGGCGCCAGAAGGGCCAACAUGAGGAUCACCCAUGUGUCCUGAUGG [Riceanon] (puzzle: Exclusion 6)
- apparent KD of MS2 coat protein [1]: 0.0109 µM
- apparent KD of MS2 coat protein [2]: 0.00846 µM
- apparent KD of MS2 coat protein [3]: 0.0103 µM

Sequence: AUAAAUAACGUUAGGAUAUAUUUUGUGACAUCAGGAUAGAAGGAACAUGAGGAUCACCCAUGUGAUUCUGUGAA [Maenin] (puzzle: Brourd's mod of Exclusion 4)
- apparent KD of MS2 coat protein [1]: 0.0466 µM
- apparent KD of MS2 coat protein [2]: 0.0372 µM
- apparent KD of MS2 coat protein [3]: 0.0403 µM

Sequence: UAUUUACAUGAGGAUCACCCAUGUCAGGAUAUGCUCGAUAUAUGGAAACAUAUAUCGAGCAGAAGGGACUAGCG [Jieuxxlusion 7 - Jieux - Exclusion 1] (Eterna round: R97, puzzle: Exclusion 1)
- apparent KD of MS2 coat protein (input ligand: FMN 200 uM): 0.152 µM
- apparent KD of MS2 coat protein (input ligand: none): 0.0727 µM

Sequence: UUUAGUUUAGGAUAUGUAGAUUUUAACAUGAGGAUCACCCAUGUAGAUCCUGAAUUAACUACAGAAGGGAACAUUU [Mod of Brourd 14 - Jieux - Exclusion 5] (Eterna round: R97, puzzle: Exclusion 5)
- apparent KD of MS2 coat protein (input ligand: FMN 200 uM): 0.124 µM
- apparent KD of MS2 coat protein (input ligand: none): 0.154 µM

Sequence: CUAGAUCUUCGGAUCUAGUACAUGAGGAUCACCCAUGUGACGAGUUACAUGUUUUACAAGCUUUUUGCUCGUCUUAU [Sensor v3 - Turn-off variant 1 - 13] (puzzle: Sensor v3, turn-off variant 1)
- apparent KD of MS2 coat protein [1]: 0.0394 µM
- apparent KD of MS2 coat protein [2]: 0.0907 µM
- apparent KD of MS2 coat protein [3]: 0.0405 µM

Sequence: AGCCCUGCAGGAUAUGCCCGGGAUAACAUGAGGAUCACCCAUGUGACCGGUUGUUAGACUGCAGAAGGGCAUGGGA [salish99_ex5_r4_302] (Eterna round: R97, puzzle: Exclusion 5)
- apparent KD of MS2 coat protein (input ligand: FMN 200 uM): 0.0148 µM
- apparent KD of MS2 coat protein (input ligand: none): 0.0122 µM

Sequence: UCGUUCCGUGUAGGAUAUUGGCCUUCUCUGGGCCGAGAAGGACAUGAGGAUCACCCAUGUAUGUUAUUAUCGCGCGUGGCGCAU [Design 85] (Eterna round: R96, puzzle: Exclusion NG 1)
- apparent KD of MS2 coat protein [4]: 0.0247 µM

Sequence: GAUCGACAUGAGGAUCACCCAUGUCAGGAUAUCGUCACUGGAGCCUCGGCUCCAGUGACGAGAAGGGAUAUAAU [E1/16-A2] (Eterna round: R97, puzzle: Exclusion 1)
- apparent KD of MS2 coat protein (input ligand: FMN 200 uM): 0.0316 µM
- apparent KD of MS2 coat protein (input ligand: none): 0.032 µM

Sequence: GCAAGCUUAAUCACUAUGAACAUGAGGAUCACCCAUGUAUAAGGUAAUACUUUUGGGCCCUUUAUUACUCGUCUUAU [JR_STOV1_Sub030] (Eterna round: R97, puzzle: Sensor, turn-off variant 1)
- apparent KD of MS2 coat protein (input ligand: FMN 200 uM): 0.0613 µM
- apparent KD of MS2 coat protein (input ligand: none): 0.0803 µM

Sequence: GUCUGCACGCUGCGGUCCUACAUGAGGAUCACCCAUGUGGUCUGGUGGCGUGGGUCGCCGGACUUGGCUCGUCUUGA [salish99_S_TOV1_R5_045] (Eterna round: R97, puzzle: Sensor, turn-off variant 1)
- apparent KD of MS2 coat protein (input ligand: FMN 200 uM): 0.0165 µM
- apparent KD of MS2 coat protein (input ligand: none): 0.0159 µM

Sequence: UAAUAAAGUGUGAGGAUAUGCUGGUCCAUAGAUCAGCAGAAGGCACAUGAGGAUCACCCAUGUAAUAUAUAAAU [Mat - Exclusion 4 - JL Mod - D57] (puzzle: Brourd's mod of Exclusion 4)
- apparent KD of MS2 coat protein [1]: 0.199 µM
- apparent KD of MS2 coat protein [2]: 0.0275 µM
- apparent KD of MS2 coat protein [3]: 0.0245 µM

Sequence: UGUCAGAUGGUAGGAUAUCCAUAUCGAGUGACCCUUUCUUAACAUGAGGAUCACCCAUGUCGGUGGGAGAAGGGCCGUAUGGUG [salish99_ExNG02_R04_032] (Eterna round: R96, puzzle: Exclusion NG 2)
- apparent KD of MS2 coat protein (input ligand: FMN 200 uM): 0.0314 µM
- apparent KD of MS2 coat protein [4]: 0.024 µM
- apparent KD of MS2 coat protein (input ligand: none): 0.0299 µM

Sequence: AAAUUGCUAGAGGAUAUCGGAUAGGAUUUAUUACGAGAAGGUUAGACAUGAGGAUCACCCAUGUUCUGUUGGGA [EX6 #24] (Eterna round: R97, puzzle: Exclusion 6)
- apparent KD of MS2 coat protein (input ligand: FMN 200 uM): 0.0895 µM
- apparent KD of MS2 coat protein (input ligand: none): 0.0369 µM

Sequence: GAUCACUGAGGAUAUACACAGAUACAAAGUAUCUGAUGGUGACAUGAGGAUCACCCAUGUAGAAGGCAGAGGUC [Omei Ex2 B7] (Eterna round: R97, puzzle: Exclusion 2)
- apparent KD of MS2 coat protein (input ligand: FMN 200 uM): 0.29 µM
- apparent KD of MS2 coat protein (input ligand: none): 0.495 µM

Sequence: GCACGGUUGGUAGGAUAUCAUUGCGAUUAGCUAUGAGAAGGACCACAUGAGGAUCACCCAUGUCCUCUAAUUAGCCUGCCGUGC [Eli exng1 - 014] (Eterna round: R96, puzzle: Exclusion NG 1)
- apparent KD of MS2 coat protein [4]: 0.118 µM

Sequence: CUUGUACAUGAGGAUCACCCAUGUUAGGAUAUCUCGCCGUCGGCUUGCCGACGGUAUUAGAGAAGGGACUUGGG [JL Tixe mod 6] (puzzle: Exclusion 1)
- apparent KD of MS2 coat protein [2]: 0.0508 µM

Sequence: GUCUGCACGCUGCGGUCCUACAUGAGGAUCACCCAUGUGGUCUGGUGGCGUGGGUCGCCGGACUUGGCUCGUCUUGG [salish99_S_TOV1_R5_048] (Eterna round: R97, puzzle: Sensor, turn-off variant 1)
- apparent KD of MS2 coat protein (input ligand: FMN 200 uM): 0.0148 µM
- apparent KD of MS2 coat protein (input ligand: none): 0.0147 µM

Sequence: GUGAAGAAGUUAGUGGCCUACAUGAGGAUCACCCAUGUGAGGGAAAUGUUGAGGCGAAAGUUGUGUGCUCGUCUGUA [JR_SV3TOV1_Sub040] (puzzle: Sensor v3, turn-off variant 1)
- apparent KD of MS2 coat protein [1]: 0.0271 µM
- apparent KD of MS2 coat protein [2]: 0.0521 µM
- apparent KD of MS2 coat protein [3]: 0.0311 µM

Sequence: UCAUGGUAGCAGGAUAUGCUUGUAAUUUUUUUUGCAGAAGGGCUUACAUGAGGAUCACCCAUGUGUUAGGUCUA [JR_E6_Sub068] (puzzle: Exclusion 6)
- apparent KD of MS2 coat protein [2]: 0.0307 µM

Sequence: GGUUGACAUGAGGAUCACCCAUGUGAGGAUAUGCGAGAGAAAAAAGUGAGGAAGAUAAGCAGAAGGCGCUGUCG [salish99-ex1_r3_013] (puzzle: Exclusion 1)
- apparent KD of MS2 coat protein [1]: 0.118 µM
- apparent KD of MS2 coat protein [2]: 0.178 µM
- apparent KD of MS2 coat protein [3]: 0.26 µM

Sequence: CAUUAUUAUCGAGGAUAUCCUAUUGAAAUUCUAGGAGAAGGCGGACUCAACAUGAGGAUCACCCAUGUGGGACGGAUGCUAGGG [Ex NG1 #29] (Eterna round: R96, puzzle: Exclusion NG 1)
- apparent KD of MS2 coat protein (input ligand: FMN 200 uM): 0.0159 µM
- apparent KD of MS2 coat protein [4]: 0.0196 µM
- apparent KD of MS2 coat protein (input ligand: none): 0.0178 µM

Sequence: GUUAUGUCAGGAUAUGCUAAUGAUGAGUGCUCAGACAUGAUGCAGAAGGGACAUGAGGAUCACCCAUGUACUAA [EX4 #11] (Eterna round: R97, puzzle: Exclusion 4)
- apparent KD of MS2 coat protein (input ligand: FMN 200 uM): 0.116 µM
- apparent KD of MS2 coat protein (input ligand: none): 0.0361 µM

Sequence: UAUAGGCGAGGAUAUACUAACAAACGGAUCGCCAAACAAGAACUUGAGGAUCACCCAAGUAGAAGGCGCAAUUG [Gezaonsoma] (Eterna round: R97, puzzle: Exclusion 2)
- apparent KD of MS2 coat protein (input ligand: FMN 200 uM): 0.0158 µM
- apparent KD of MS2 coat protein (input ligand: none): 0.0241 µM

Sequence: UUCGUGCAGCAAAGCUGUACGCGUACAUGAGGAUCACCCAUGUAGGAUAUGGUAGGCAAAGCUUACUAGAAGGAUAUGGUGAGC [Mat - Exclusion NG 3 - Mod of JL - D80] (Eterna round: R96, puzzle: Exclusion NG 3)
- apparent KD of MS2 coat protein (input ligand: FMN 200 uM): 0.0519 µM
- apparent KD of MS2 coat protein [4]: 0.0368 µM
- apparent KD of MS2 coat protein (input ligand: none): 0.0352 µM

From the supplement of paper PMC9170038
